The values below come from the supplement of paper PMC5998384.

Data set [1] concerns HeLa Kyoto. In words: solubility change mitosis vs G1/S (difference of NP-40 vs SDS log2 ratios) (log2 ratio difference); higher = more soluble in mitosis.
Data set [2] concerns HeLa Kyoto. In words: thermal stability score vs G1/S (z-score of summed log2 fold changes over temperatures); higher = more thermally stable than in G1/S.
For data set [3], the system named is HeLa Kyoto. In words: solubility in G1/S (NP-40 vs SDS abundance) (log2 ratio); higher = more soluble. The settings on record: cell cycle stage: G1/S.
For data set [4], the system named is HeLa Kyoto. In words: melting temperature (median over replicates), in situ; higher = more thermally stable.
Where [5] appears, read: cell cycle stage: early G1 (4.5 h after nocodazole release).
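Throughout, for melting temperature (median over replicates), in situ: HeLa Kyoto cells synchronized by double thymidine or nocodazole block, proteins quantified by TMT10plex mass spectrometry, three independent biological replicates.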
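Throughout, for solubility change mitosis vs G1/S (difference of NP-40 vs SDS log2 ratios): synchronized HeLa Kyoto cells (double thymidine block for G1/S, nocodazole release for mitosis), protein amounts in NP-40 versus SDS lysates quantified by mass spectrometry, three biological replicates.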
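Throughout, for solubility in G1/S (NP-40 vs SDS abundance): HeLa Kyoto cells arrested at G1/S by double thymidine block, proteins quantified by TMT10plex mass spectrometry in mild NP-40 versus SDS extracts, three biological replicates.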
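Throughout, for thermal stability score vs G1/S (z-score of summed log2 fold changes over temperatures): synchronized HeLa Kyoto cells, proteins quantified by TMT10plex mass spectrometry, three biological replicates, mitosis taken 0.5 h after nocodazole release, G1/S directly after double thymidine block.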

“MQRRGALFGMPGGSGGRKMAAGDIGELLVPHMPTIRVPRSGDRVYKNECAFSYDSPNSEGGLYVCMNTFLAFGREHVERHFRKTGQSVYMHLKRHVREKVRGASGGALPKRRNSKIFLDLDTDDDLNSDDYEYEDEAKLVIFPDHYEIALPNIEELPALVTIACDAVLSSKSPYRKQDPDTWENELPVSKYANNLTQLDNGVRIPPSGWKCARCDLRENLWLNLTDGSVLCGKWFFDSSGGNGHALEHYRDMGYPLAVKLGTITPDGADVYSFQEEEPVLDPHLAKHLAHFGIDMLHMHGTENGLQDNDIKLRVSEWEVIQESGTKLKPMYGPGYTGLKNLGNSCYLSSVMQAIFSIPEFQRAYVGNLPRIFDYSPLDPTQDFNTQMTKLGHGLLSGQYSKPPVKSELIEQVMKEEHKPQQNGISPRMFKAFVSKSHPEFSSNRQQDAQEFFLHLVNLVERNRIGSENPSDVFRFLVEERIQCCQTRKVRYTERVDYLMQLPVAMEAATNKDELIAYELTRREAEANRRPLPELVRAKIPFSACLQAFSEPENVDDFWSSALQAKSAGVKTSRFASFPEYLVVQIKKFTFGLDWVPKKFDVSIDMPDLLDINHLRARGLQPGEEELPDISPPIVIPDDSKDRLMNQLIDPSDIDESSVMQLAEMGFPLEACRKAVYFTGNMGAEVAFNWIIVHMEEPDFAEPLTMPGYGGAASAGASVFGASGLDNQPPEEIVAIITSMGFQRNQAIQALRATNNNLERALDWIFSHPEFEEDSDFVIEMENNANANIISEAKPEGPRVKDGSGTYELFAFISHMGTSTMSGHYICHIKKEGRWVIYNDHKVCASERPPKDLGYMYFYRRIPS [USP13]”: the “solubility change mitosis (log2)” value in the data set on HeLa Kyoto [1] was -0.0974. Also, the figures for the thermal stability score with HeLa Kyoto [2] (setting [5]) and with HeLa Kyoto [2] (cell cycle stage: mitosis) were 0.321 and 0.746, respectively. In the data set with HeLa Kyoto [3], the “solubility in G1/S (log2)” value came to 0.0742. The values for the melting temperature with HeLa Kyoto [4] (cell cycle stage: G1/S) and in the data set with HeLa Kyoto [4] (cell cycle stage: mitosis) were 50 °C and 50.2 °C, respectively.
On to “MQSWSRVYCSLAKRGHFNRISHGLQGLSAVPLRTYADQPIDADVTVIGSGPGGYVAAIKAAQLGFKTVCIEKNETLGGTCLNVGCIPSKALLNNSHYYHMAHGKDFASRGIEMSEVRLNLDKMMEQKSTAVKALTGGIAHLFKQNKVVHVNGYGKITGKNQVTATKADGGTQVIDTKNILIATGSEVTPFPGITIDEDTIVSSTGALSLKKVPEKMVVIGAGVIGVELGSVWQRLGADVTAVEFLGHVGGVGIDMEISKNFQRILQKQGFKFKLNTKVTGATKKSDGKIDVSIEAASGGKAEVITCDVLLVCIGRRPFTKNLGLEELGIELDPRGRIPVNTRFQTKIPNIYAIGDVVAGPMLAHKAEDEGIICVEGMAGGAVHIDYNCVPSVIYTHPEVAWVGKSEEQLKEEGIEYKVGKFPFAANSRAKTNADTDGMVKILGQKSTDRVLGAHILGPGAGEMVNEAALALEYGASCEDIARVCHAHPTLSEAFREANLAASFGKSINF [DLD]”, for which the “solubility change mitosis (log2)” value with HeLa Kyoto [1] was -0.0404. Also, the thermal stability score in the data set with HeLa Kyoto [2] (setting [5]) is -0.545; with HeLa Kyoto [2] (cell cycle stage: mitosis) it was -2.94. For the same sequence, the “solubility in G1/S (log2)” value with HeLa Kyoto [3] was -0.00434. Further, the melting temperature was 58.6 °C in the data set with HeLa Kyoto [4] (cell cycle stage: G1/S) and 56.8 °C in the data set on HeLa Kyoto [4] (cell cycle stage: mitosis).
Take “MQTPEVPAERSPRRRSISGTSTSEKPNSMDTANTSPFKVPGFFSKRLKGSIKRTKSQSKLDRNTSFRLPSLRSTDDRSRGLPKLKESRSHESLLSPCSTVECLDLGRGEPVSVKPLHSSILGQDFCFEVTYLSGSKCFSCNSASERDKWMENLRRTVQPNKDNCRRAENVLRLWIIEAKDLAPKKKYFCELCLDDTLFARTTSKTKADNIFWGEHFEFFSLPPLHSITVHIYKDVEKKKKKDKNNYVGLVNIPTASVTGRQFVEKWYPVSTPTPNKGKTGGPSIRIKSRFQTITILPMEQYKEFAEFVTSNYTMLCSVLEPVISVRNKEELACALVHILQSTGRAKDFLTDLVMSEVDRCGEHDVLIFRENTIATKSIEEYLKLVGQQYLHDALGEFIKALYESDENCEVDPSKCSSSELIDHQSNLKMCCELAFCKIINSYCVFPRELKEVFASWKQQCLNRGKQDISERLISASLFLRFLCPAIMSPSLFNLMQEYPDDRTSRTLTLIAKVIQNLANFAKFGNKEEYMAFMNDFLEHEWGGMKRFLLEISNPDTISNTPGFDGYIDLGRELSVLHSLLWEVVSQLDKGENSFLQATVAKLGPLPRVLADITKSLTNPTPIQQQLRRFTEHNSSPNVSGSLSSGLQKIFEDPTDSDLHKLKSPSQDNTDSYFRGKTLLLVQQASSQSMTYSEKDERESSLPNGRSVSLMDLQDTHAAQVEHASVMLDVPIRLTGSQLSITQVASIKQLRETQSTPQSAPQVRRPLHPALNQPGGLQPLSFQNPVYHLNNPIPAMPKASIDSSLENLSTASSRSQSNSEDFKLSGPSNSSMEDFTKRSTQSEDFSRRHTVPDRHIPLALPRQNSTGQAQIRKVDQGGLGARAKAPPSLPHSASLRSTGSMSVVSAALVAEPVQNGSRSRQQSSSSRESPVPKVRAIQRQQTQQVQSPVDSATMSPVERTAAWVLNNGQYEEDVEETEQNLDEAKHAEKYEQEITKLKERLRVSSRRLEEYERRLLVQEQQMQKLLLEYKARLEDSEERLRRQQEEKDSQMKSIISRLMAVEEELKKDHAEMQAVIDAKQKIIDAQEKRIVSLDSANTRLMSALTQVKERYSMQVRNGISPTNPTKLSITENGEFKNSSC [RASAL2]”: in the data set on HeLa Kyoto [1], the “solubility change mitosis (log2)” value is -0.0989. Further, the thermal stability score with HeLa Kyoto [2] (setting [5]) is 1.04; in the data set on HeLa Kyoto [2] (cell cycle stage: mitosis) it was 2.25. In addition, the “solubility in G1/S (log2)” value in the data set on HeLa Kyoto [3] was determined as 0.0337. Moreover, the melting temperature in the data set on HeLa Kyoto [4] (cell cycle stage: G1/S) was 49 °C; in the data set on HeLa Kyoto [4] (cell cycle stage: mitosis), 49.4 °C.
In the case of “MQVTLKTLQQQTFKIDIDPEETVKALKEKIESEKGKDAFPVAGQKLIYAGKILNDDTALKEYKIDEKNFVVVMVTKPKAVSTPAPATTQQSAPASTTAVTSSTTTTVAQAPTPVPALAPTSTPASITPASATASSEPAPASAAKQEKPAEKPAETPVATSPTATDSTSGDSSRSNLFEDATSALVTGQSYENMVTEIMSMGYEREQVIAALRASFNNPDRAVEYLLMGIPGDRESQAVVDPPQAASTGAPQSSAVAAAAATTTATTTTTSSGGHPLEFLRNQPQFQQMRQIIQQNPSLLPALLQQIGRENPQLLQQISQHQEHFIQMLNEPVQEAGGQGGGGGGGSGGIAEAGSGHMNYIQVTPQEKEAIERLKALGFPEGLVIQAYFACEKNENLAANFLLQQNFDED [RAD23B]”, the “solubility change mitosis (log2)” value in the data set on HeLa Kyoto [1] is 0.104. Further, the thermal stability score is -2.19 in the data set on HeLa Kyoto [2] (setting [5]) and -2.38 with HeLa Kyoto [2] (cell cycle stage: mitosis). In the data set on HeLa Kyoto [3], the “solubility in G1/S (log2)” value was 0.0413. Besides, the melting temperature was 57 °C with HeLa Kyoto [4] (cell cycle stage: G1/S) and 54.1 °C in the data set with HeLa Kyoto [4] (cell cycle stage: mitosis).
In the case of “MQWLRVRESPGEATGHRVTMGTAALGPVWAALLLFLLMCEIPMVELTFDRAVASGCQRCCDSEDPLDPAHVSSASSSGRPHALPEIRPYINITILKGDKGDPGPMGLPGYMGREGPQGEPGPQGSKGDKGEMGSPGAPCQKRFFAFSVGRKTALHSGEDFQTLLFERVFVNLDGCFDMATGQFAAPLRGIYFFSLNVHSWNYKETYVHIMHNQKEAVILYAQPSERSIMQSQSVMLDLAYGDRVWVRLFKRQRENAIYSNDFDTYITFSGHLIKAEDD [C1QTNF6]”, the “solubility change mitosis (log2)” value with HeLa Kyoto [1] is -0.235. Further, the values for the thermal stability score in the data set with HeLa Kyoto [2] (setting [5]) and in the data set with HeLa Kyoto [2] (cell cycle stage: mitosis) were 0.27 and -0.884, respectively. In the data set with HeLa Kyoto [3], the “solubility in G1/S (log2)” value worked out at 0.0492. Moreover, the melting temperature with HeLa Kyoto [4] (cell cycle stage: mitosis) is 55 °C.
